From patent US7202212 (BETH ISRAEL DEACONESS MEDICAL CENTER, dated 2007)

Target: T1, mouse α7 subunit of the 20S proteasome, full length (mouse, UniProt O70435 1-255)
T1 construct: also called a7; full length a7 construct
T1 sequence (looked up): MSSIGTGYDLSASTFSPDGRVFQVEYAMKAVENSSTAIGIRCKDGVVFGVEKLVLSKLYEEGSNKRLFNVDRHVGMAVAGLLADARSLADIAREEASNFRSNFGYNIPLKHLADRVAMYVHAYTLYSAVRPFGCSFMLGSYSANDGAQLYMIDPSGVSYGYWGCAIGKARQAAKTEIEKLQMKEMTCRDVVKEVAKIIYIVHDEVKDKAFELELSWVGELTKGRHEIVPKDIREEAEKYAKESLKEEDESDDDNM
Assay: yeast two-hybrid screen of a mouse cDNA library with PR-39 exon 4 as bait
Experimental: To identify possible intracellular targets of PR-39 peptide action, a yeast two-hybrid screen of mouse cDNA library was performed using the unique 4th exon DNA sequence of porcine PR-39 gene as "bait". […] All four clones encoded overlapping identical cDNA sequences which are highly homologous to the sequence of the human α7 (HC8) subunit of the 20S proteasome (GeneBank accession AF055983).

binding result: binds
B1: porcine PR-39 peptide (4th exon, amino acids 131 to 169) in pAS2-1 vector as yeast two-hybrid bait (peptide, not shown: large carriers)
chain: RRRPRPPYLPRPRPPPFFPPRLPPRIPPGFPPRFPPRFP
notes: Bait of the yeast two-hybrid assay; The 39 residues are amino acids 131 to 169 of the porcine precursor; also called PR-39 construct
